Results from patent publication US20050142561A1 (published 2005).

Biological target: T1, Saccharomyces cerevisiae Fab1p (Saccharomyces cerevisiae, UniProt P34756 1-2278)
T1 construct: Constructs used in the two-hybrid, coimmunoprecipitation and cross-linking experiments are not described; also called PI3P 5-kinase
Experiment: yeast two-hybrid; coimmunoprecipitation; cross-linking

T1 sequence (P34756 whole entry): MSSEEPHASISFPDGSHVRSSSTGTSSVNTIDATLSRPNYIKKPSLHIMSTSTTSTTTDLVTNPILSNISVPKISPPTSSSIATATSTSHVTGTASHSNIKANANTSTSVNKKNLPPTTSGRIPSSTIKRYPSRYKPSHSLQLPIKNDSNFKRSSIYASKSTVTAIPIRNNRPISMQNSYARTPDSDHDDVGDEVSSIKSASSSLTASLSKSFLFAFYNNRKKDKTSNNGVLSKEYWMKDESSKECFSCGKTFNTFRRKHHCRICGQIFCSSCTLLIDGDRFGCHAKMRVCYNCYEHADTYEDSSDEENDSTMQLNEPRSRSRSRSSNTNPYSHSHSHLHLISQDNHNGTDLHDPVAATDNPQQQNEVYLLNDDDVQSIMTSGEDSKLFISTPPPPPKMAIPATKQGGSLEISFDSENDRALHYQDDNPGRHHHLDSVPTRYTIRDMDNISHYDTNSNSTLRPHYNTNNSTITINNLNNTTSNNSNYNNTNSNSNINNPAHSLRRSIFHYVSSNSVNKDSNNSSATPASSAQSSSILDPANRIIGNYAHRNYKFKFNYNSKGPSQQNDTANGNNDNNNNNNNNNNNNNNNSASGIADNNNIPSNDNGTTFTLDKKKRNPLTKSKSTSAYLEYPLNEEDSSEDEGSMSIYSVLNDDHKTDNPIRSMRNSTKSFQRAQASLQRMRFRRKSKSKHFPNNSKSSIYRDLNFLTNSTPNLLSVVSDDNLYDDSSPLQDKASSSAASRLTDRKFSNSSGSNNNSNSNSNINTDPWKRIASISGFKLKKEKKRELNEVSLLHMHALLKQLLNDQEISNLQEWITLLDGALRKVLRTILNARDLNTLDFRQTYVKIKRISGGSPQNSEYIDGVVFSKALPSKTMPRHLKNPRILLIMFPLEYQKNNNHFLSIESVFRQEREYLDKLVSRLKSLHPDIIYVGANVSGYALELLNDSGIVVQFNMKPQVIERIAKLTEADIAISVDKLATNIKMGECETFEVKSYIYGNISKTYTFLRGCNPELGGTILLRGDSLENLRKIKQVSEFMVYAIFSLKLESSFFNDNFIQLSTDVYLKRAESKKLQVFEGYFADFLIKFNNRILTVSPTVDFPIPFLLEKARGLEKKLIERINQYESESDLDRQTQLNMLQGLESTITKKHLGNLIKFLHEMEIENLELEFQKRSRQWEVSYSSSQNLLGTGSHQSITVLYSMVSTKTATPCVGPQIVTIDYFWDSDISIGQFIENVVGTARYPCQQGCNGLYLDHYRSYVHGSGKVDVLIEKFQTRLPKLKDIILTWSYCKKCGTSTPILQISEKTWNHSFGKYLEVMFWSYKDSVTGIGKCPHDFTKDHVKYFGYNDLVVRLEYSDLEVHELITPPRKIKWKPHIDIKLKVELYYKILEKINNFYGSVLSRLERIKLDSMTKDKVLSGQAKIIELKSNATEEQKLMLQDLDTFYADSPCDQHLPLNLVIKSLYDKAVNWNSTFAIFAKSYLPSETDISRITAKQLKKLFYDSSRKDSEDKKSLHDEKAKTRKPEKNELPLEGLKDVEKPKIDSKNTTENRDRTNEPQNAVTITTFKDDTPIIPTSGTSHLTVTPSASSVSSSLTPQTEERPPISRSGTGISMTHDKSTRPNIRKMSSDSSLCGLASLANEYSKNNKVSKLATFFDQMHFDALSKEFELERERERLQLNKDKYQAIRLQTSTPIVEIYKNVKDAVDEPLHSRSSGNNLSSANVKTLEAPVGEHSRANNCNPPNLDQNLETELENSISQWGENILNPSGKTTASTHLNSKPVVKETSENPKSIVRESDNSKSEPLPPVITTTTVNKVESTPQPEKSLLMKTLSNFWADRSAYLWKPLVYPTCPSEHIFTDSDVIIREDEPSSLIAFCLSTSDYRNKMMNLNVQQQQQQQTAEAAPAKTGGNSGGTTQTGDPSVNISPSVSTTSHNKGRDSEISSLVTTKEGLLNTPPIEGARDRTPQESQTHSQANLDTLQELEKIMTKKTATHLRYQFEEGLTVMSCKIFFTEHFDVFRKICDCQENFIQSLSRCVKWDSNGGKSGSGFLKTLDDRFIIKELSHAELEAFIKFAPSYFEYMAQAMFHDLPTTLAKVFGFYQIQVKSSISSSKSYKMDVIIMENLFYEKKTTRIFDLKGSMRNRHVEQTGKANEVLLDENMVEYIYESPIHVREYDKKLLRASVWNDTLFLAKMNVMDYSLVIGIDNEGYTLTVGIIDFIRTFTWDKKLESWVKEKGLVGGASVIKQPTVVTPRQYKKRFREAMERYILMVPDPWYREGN

- binding result: no binding
B1: Saccharomyces cerevisiae Vac14p (other)
chain: MEKSIAKGLSDKLYEKRKAAALELEKLVKQCVLEGDYDRIDKIIDELCRDYAYALHQPMARNAGLMGLAATAIALGINDVGRYLRNILPPVLACFGDQNDQVRFYACESLYNIAKIAKGEILVYFNEIFDVLCKISADTENSVRGAAELLDRLIKDIVAERASNYISIVNNGSHGLLPAIKTDPISGDVYQEEYEQDNQLAFSLPKFIPLLTERIYAINPDTRVFLVDWLKVLLNTPGLELISYLPSFLGGLFTFLGDSHKDVRTVTHTLMDSLLHEVDRISKLQTEIKMKRLERLKMLEDKYNNSSTPTKKADGALIAEKKKTLMTALGGLSKPLSMETDDTKLSNTNETDDERHLTSQEQLLDSEATSQEPLRDGEEYIPGQDINLNFPEVITVLVNNLASSEAEIQLIALHWIQVILSISPNVFIPFLSKILSVLLKLLSDSDPHITEIAQLVNGQLLSLCSSYVGKETDGKIAYGPIVNSLTLQFFDSRIDAKIACLDWLILIYHKAPNQILKHNDSMFLTLLKSLSNRDSVLIEKALSLLQSLCSDSNDNYLRQFLQDLLTLFKRDTKLVKTRANFIMRQISSRLSPERVYKVISSILDNYNDTTFVKMMIQILSTNLITSPEMSSLRNKLRTCEDGMFFNSLFKSWCPNPVSVISLCFVAENYELAYTVLQTYANYELKLNDLVQLDILIQLFESPVFTRMRLQLLEQQKHPFLHKCLFGILMIIPQSKAFETLNRRLNSLNIWTSQSYVMNNYIRQRENSNFCDSNSDISQRSVSQSKLHFQELINHFKAVSEEDEYSSDMIRLDHGANNKSLLLGSFLDGIDEDKQEIVTPISPMNEAINEEMESPNDNSSVILKDSGSLPFNRNVSDKLKK
notes: 880 amino acid polypeptide; In the Western blot it is the endogenous protein of yeast cell extracts; also called Vac14 yeast; YLR386W product
